Laboratory results: US20210317213A1 (AMBRX, published 2021)

What was measured:
cyno CD3 [1] = target: T1, cyno CD3 (cyno (cynomolgus monkey), UniProt Q95LI5 22-198); assay: cell binding, cynomolgus T-cells
T1 construct: whole, on cells; also called CD3 on Cynomolgus T-cells

human CD3 [2] = target: T2, human CD3 (human, UniProt P07766 23-207); assay: cell binding, human CD3, 50 nM SFA present
T2 construct: whole, on cells; also called CD3 on human T-cells

human CD3 [3] = target: T2, human CD3; assay: cell binding, activated human PBMC; E. coli protein
human CD3 [4] = target: T2, human CD3; assay: cell binding, human T-cells; set-up: Bmax: unit not given here
cyno CD3 [5] = target: T1, cyno CD3; assay: cell binding, activated cyno PBMC; E. coli protein
human CD3 [6] = target: T2, human CD3; assay: cell binding, human CD3 (activated human PBMC); human CD3 (first number of the cell)
Protocol: (§1) Testing for CD3 binding with activated human and cyno PBMC: To distinguish between the humanized anti-CD3 antibodies generated, binding to human CD3 was tested using activated human PBMCs (n=2). The activation of PBMCs and subsequent fluorescence-based CD3 binding assays were followed as described previously (see for example, Angew Chem Int Ed Engl, 52(46):12101-12104, 2013). […] The binding of the remaining 6 humanized antibodies to both human and cyno CD3 using activated human and cyno PBMCs, respectively, was titrated. […] The six (6) humanized anti-CD3 antibodies were obtained as follows: Fab1, Fab2 and Fab3 wildtype were generated by combination of LC ((vL1.2+CL); (SEQ.ID. NO:7)) and HC ((vH1.2+CH1); (SEQ.ID. NO:1)), ((vH1.1+CH1); (SEQ.ID. NO:2)) and ((vH1.0+CH1); (SEQ.ID. NO:3)) respectively. Fab4, Fab 5 and Fab6 wildtype were generated by combination of LC ((vL1.1+CL); (SEQ.ID. NO:8)) and HC ((vH1.2+CH1); (SEQ.ID. NO:1)), ((vH1.1+CH1); (SEQ.ID. NO:2)) and ((vH1.0+CH1); (SEQ.ID. NO:3)) respectively.
(§2) Binding of Folate-conjugated Fabs to human and cyno CD3: Binding of E. coli produced and Folate-conjugated low-affinity variants of humanized anti-CD3 Fabs was performed as described in the above Examples.

cyno CD3 [7] = target: T1, cyno CD3; assay: cell binding, cyno CD3 (activated cyno PBMC); cyno CD3 (second number of the cell)
Protocol: as §1, §2

T1 sequence (Q95LI5 22-198): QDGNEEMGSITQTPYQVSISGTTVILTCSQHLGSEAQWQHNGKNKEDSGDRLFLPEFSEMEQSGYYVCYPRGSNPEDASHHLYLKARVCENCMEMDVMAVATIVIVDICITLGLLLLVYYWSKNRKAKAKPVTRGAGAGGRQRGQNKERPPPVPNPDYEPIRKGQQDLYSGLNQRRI
T2 sequence (P07766 23-207): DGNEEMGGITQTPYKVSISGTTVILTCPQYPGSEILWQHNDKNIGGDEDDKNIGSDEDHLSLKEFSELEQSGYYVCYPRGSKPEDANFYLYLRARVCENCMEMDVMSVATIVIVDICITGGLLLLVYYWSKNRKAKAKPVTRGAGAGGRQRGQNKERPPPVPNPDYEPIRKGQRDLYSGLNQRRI

B1: Fab1-HK129-pAF (Fab, V domains shown)
VH: EVQLVESGGGLVQPGGSLRLSCAASGFTFNTYAMNWVRQAPGKGLEWVARIRSKYNNYATYYADSVKDRFTISRDDSKNILYLQMNSLKTEDTAVYYCVRHGNFGNSYVSWFAYWGQGTLVTVSS
VL: QAVVTQEPSLTVSPGGTVTLTCRSSTGAVTTSNYANWVQQKPGQAPRGLIGGTNKRAPGTPARFSGSLLGGKAALTLSGAQPEDEAEYYCALWYSNLWVFGGGTKLTVLG
modifications: para-acetyl-phenylalanine (pAF) at HK129 (Kabat)
notes: From E. coli; carries no folate and no PEG; also called Fab1-HK129-pAF1; anti-CD3 Fab1-HK129-pAF control
Bmax (cyno CD3 [1]): 26600
Kd (cyno CD3 [1]): 2.67 nM
EC50 (human CD3 [2]): 1.92 nM
EC50 (human CD3 [3]): 1.14 nM
Bmax (human CD3 [4]): 32000
Kd (human CD3 [4]): 1.59 nM
EC50 (cyno CD3 [5]): 1.15 nM

B2: Fab1-HA114-Folate (Fab, V domains shown)
VH: EVQLVESGGGLVQPGGSLRLSCAASGFTFNTYAMNWVRQAPGKGLEWVARIRSKYNNYATYYADSVKDRFTISRDDSKNILYLQMNSLKTEDTAVYYCVRHGNFGNSYVSWFAYWGQGTLVTVSS
VL: QAVVTQEPSLTVSPGGTVTLTCRSSTGAVTTSNYANWVQQKPGQAPRGLIGGTNKRAPGTPARFSGSLLGGKAALTLSGAQPEDEAEYYCALWYSNLWVFGGGTKLTVLG
modifications: pAF at HA114 (Kabat) conjugated to folate (oxime)
notes: From E. coli; Fab-folate conjugate
EC50 (human CD3 [3]): 1.27 nM
EC50 (cyno CD3 [5]): 1.37 nM

B3: Fab10-HK129-Folate (Fab, V domains shown)
VH: EVQLVESGGGLVQPGGSLRLSCAASGFTFSTYAMNWVRQAPGKGLEWVARIRSKYNNYATYYADSVKDRFTISRDDSKNILYLQMNSLKTEDTAVYYCVRHGNFGNSYVSWFAYWGQGTLVTVSS
VL: QAVVTQEPSLTVSPGGTVTLTCRSSTGAVTTSNYANWFQQKPGQAPRGLIGGTNKRAPGVPARFSGSLLGGKAALTLSGAQPEDEAEYYCALWYSNLWVFGGGTKLTVLG
modifications: pAF at HK129 (Kabat) conjugated to folate (oxime)
notes: also called Fab10 (E. coli, folate-conjugated)
EC50 (human CD3 [6]): 83.6 nM
EC50 (cyno CD3 [7]): 99.5 nM

B4: Fab1-HS115-Folate (Fab, V domains shown)
VH: EVQLVESGGGLVQPGGSLRLSCAASGFTFNTYAMNWVRQAPGKGLEWVARIRSKYNNYATYYADSVKDRFTISRDDSKNILYLQMNSLKTEDTAVYYCVRHGNFGNSYVSWFAYWGQGTLVTVSS
VL: QAVVTQEPSLTVSPGGTVTLTCRSSTGAVTTSNYANWVQQKPGQAPRGLIGGTNKRAPGTPARFSGSLLGGKAALTLSGAQPEDEAEYYCALWYSNLWVFGGGTKLTVLG
modifications: pAF at HS115 (Kabat) conjugated to folate (oxime)
notes: as for B2
EC50 (human CD3 [3]): 1.41 nM
EC50 (cyno CD3 [5]): 1.37 nM

B5: Fab7-HK129-Folate (Fab, V domains shown)
VH: EVQLVESGGGLVQPGGSLRLSCAASGFTFNTYAMNWVRQAPGKGLEWVARIRSKYNNYATYYADSVKDRFTISRDDSKNILYLQMNSLKTEDTAVYYCARHGNFGNSYVSWFAYWGQGTLVTVSS
VL: QAVVTQEPSLTVSPGGTVTLTCRSSTGAVTTSNYANWVQQKPGQAPRGLIGGTNKRAPWVPARFSGSLLGGKAALTLSGAQPEDEAEYYCALWYSNLWVFGGGTKLTVLG
modifications: pAF at HK129 (Kabat) conjugated to folate (oxime)
notes: also called Fab7 (E. coli, folate-conjugated)
EC50 (human CD3 [6]): 23.4 nM
EC50 (cyno CD3 [7]): 20.2 nM

B6: Fab1-HK129-LL157-pAF (Fab, V domains shown)
VH: EVQLVESGGGLVQPGGSLRLSCAASGFTFNTYAMNWVRQAPGKGLEWVARIRSKYNNYATYYADSVKDRFTISRDDSKNILYLQMNSLKTEDTAVYYCVRHGNFGNSYVSWFAYWGQGTLVTVSS
VL: QAVVTQEPSLTVSPGGTVTLTCRSSTGAVTTSNYANWVQQKPGQAPRGLIGGTNKRAPGTPARFSGSLLGGKAALTLSGAQPEDEAEYYCALWYSNLWVFGGGTKLTVLG
modifications: pAF at LL157 (Kabat); pAF at HK129 (Kabat)
notes: From E. coli; double pAF variant, unconjugated; also called Fab1-HK129pAF-LL157pAF
Bmax (cyno CD3 [1]): 23400
Kd (cyno CD3 [1]): 0.955 nM
Bmax (human CD3 [4]): 27900
Kd (human CD3 [4]): 0.604 nM

B7: Fab1-HA114-pAF1 (Fab, V domains shown)
VH: EVQLVESGGGLVQPGGSLRLSCAASGFTFNTYAMNWVRQAPGKGLEWVARIRSKYNNYATYYADSVKDRFTISRDDSKNILYLQMNSLKTEDTAVYYCVRHGNFGNSYVSWFAYWGQGTLVTVSS
VL: QAVVTQEPSLTVSPGGTVTLTCRSSTGAVTTSNYANWVQQKPGQAPRGLIGGTNKRAPGTPARFSGSLLGGKAALTLSGAQPEDEAEYYCALWYSNLWVFGGGTKLTVLG
modifications: para-acetyl-phenylalanine (pAF) at HA114 (Kabat)
notes: From E. coli; also called Fab1 HA114pAF, unconjugated
EC50 (human CD3 [3]): 1.35 nM
EC50 (cyno CD3 [5]): 1.33 nM
